The record followed here is the supplement of paper PMC7877785.

This data set in a line: self-splicing fitness, log relative to wild type (ln ratio); higher = more splicing; Tetrahymena group I intron in knt gene, E. coli kanamycin selection, DiMSum; sequences stand for … in CUCUCU…GGAGGGAAAAGUUAUCAGGCAUGCACCUGGUAGCUAGUCUUUAAACCAAUAGAUUGCAUCGGUUUAAAAGGCAAGACCGUCAAAUUGCGGGAAAGGGGUCAACAGCCGUUCAGUACCAAGUCUCAGGGGAAACUUUGAGAUGGCCUUGCAAAGGGUAUGGUAAUAAGCUGACGGACAUGGUCCUAACCACGCAGCCAAGUCCUAAGUCAACAGAUCUUCUGUUGAUAUGGAUGCAGUUCACAGACUAAAUGUCGGUCGGGGAAGAUGUAUUCUUCUCAUAAGAUAUAGUCGGACCUCUCCUUAAUGGGAGCUAGCGGAUGAAGUGAUGCAACACUGGAGCCGCUGGGAACUAAUUUGUAUGCGAAAGUAUAUUGAUUAGUUUUGGAGUACUCGUGGUCG
The procedure, abridged: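 A randomised library covering all eight P1ex-region intron nucleotides was built with the intron in the knt kanamycin-resistance gene on pET-22b(+) and held in E. coli BL21(DE3). Cells were grown overnight at 37°C or 30°C on LB agar, with or without 25 μg/mL kanamycin, plus 100 μg/mL carbenicillin, 50 μM IPTG and 0.2% rhamnose, and pooled colonies were amplicon-sequenced on an Illumina HiSeq 2500. DiMSum fitness is the error-weighted combination of wild-type-normalised replicate fold changes, kanamycin versus none.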

± gives the uncertainty stated by the source.

As to CUAGAGCAAUAUUACGACAA, the “self-splicing fitness (ln)” value runs as follows: (30 °C) -2.53 ± 0.32; (37 °C) -1.84 ± 0.34.

Turning to AGUAAGCAAUAUUACGCAGA, the “self-splicing fitness (ln)” value runs as follows: (30 °C) -3.22 ± 0.36; (37 °C) -2.67 ± 0.29.

With UUCGAGCAAUAUUACGACUU, the “self-splicing fitness (ln)” value runs as follows: (30 °C) -3.32 ± 0.29; (37 °C) -1.49 ± 0.29. The matching figures for CGACAGCAAUAUUACGUGUU: -2.38 ± 0.086 and -3.04 ± 0.17.

Regarding GACGAGCAAUAUUACGCAGU, the “self-splicing fitness (ln)” value (30 °C) is -3.48 ± 0.28 and the “self-splicing fitness (ln)” value (37 °C) was -2.21 ± 0.23. The like results for UAUUAGCAAUAUUACGCAGG were, in that order, -1.43 ± 0.14 and -0.962 ± 0.14. The matching figures for GGGAAGCAAUAUUACGGCUG: -0.935 ± 0.13 and -0.54 ± 0.17. The matching figures for AGCAAGCAAUAUUACGUAUC: -3.34 ± 0.26 and -1.41 ± 0.2. CAGUAGCAAUAUUACGUAGA: the “self-splicing fitness (ln)” value by setting is: (30 °C) -3.03 ± 0.14; (37 °C) -1.85 ± 0.16. With UACAAGCAAUAUUACGAGAA, the “self-splicing fitness (ln)” value reads like this: (30 °C) -2.1 ± 0.29; (37 °C) -2.42 ± 0.33. Take ACUGAGCAAUAUUACGGAAC: the “self-splicing fitness (ln)” value (37 °C) was -1.92 ± 0.29.

With CAAUAGCAAUAUUACGCUAC, the “self-splicing fitness (ln)” value (30 °C) was -3.14 ± 0.22 and the “self-splicing fitness (ln)” value (37 °C) was -2.08 ± 0.26.

As for CGGGAGCAAUAUUACGGGCG, the “self-splicing fitness (ln)” value is -2.44 ± 0.31 (30 °C) and -2.67 ± 0.41 (37 °C).

On to CUUGAGCAAUAUUACGAUUA, for which the “self-splicing fitness (ln)” value by setting is: (30 °C) -3.25 ± 0.26; (37 °C) -2.36 ± 0.35.

UUGUAGCAAUAUUACGUAAA: the “self-splicing fitness (ln)” value reads like this: (30 °C) -1.72 ± 0.22; (37 °C) -0.0948 ± 0.21. Take GCUUAGCAAUAUUACGCUUG: the “self-splicing fitness (ln)” value is -2.53 ± 0.27 (30 °C) and -1.74 ± 0.36 (37 °C). GACAAGCAAUAUUACGUCGU: the “self-splicing fitness (ln)” value reads like this: (30 °C) -3.44 ± 0.14; (37 °C) -2.24 ± 0.11. The matching figures for GAACAGCAAUAUUACGGGUA: -1.54 ± 0.07 and -1.32 ± 0.076. The like results for AUACAGCAAUAUUACGACAC were, in that order, -0.517 ± 0.11 and -1.31 ± 0.13. The matching figures for AUCUAGCAAUAUUACGCAGC: -2.64 ± 0.35 and -2.06 ± 0.31. For UUGUAGCAAUAUUACGAACG, the “self-splicing fitness (ln)” value is, setting by setting: (30 °C) -1.69 ± 0.31; (37 °C) -0.376 ± 0.26. Consider UGCCAGCAAUAUUACGUCCA, for which the “self-splicing fitness (ln)” value is -0.0851 ± 0.076 (30 °C) and 0.335 ± 0.09 (37 °C). As for GGUGAGCAAUAUUACGGAAG, the “self-splicing fitness (ln)” value (37 °C) is -2.66 ± 0.41. For GUAUAGCAAUAUUACGGCAC, the “self-splicing fitness (ln)” value (30 °C) is -0.331 ± 0.3.

Turning to CGUGAGCAAUAUUACGCUGG, the “self-splicing fitness (ln)” value by setting is: (30 °C) -1.7 ± 0.15; (37 °C) -1.47 ± 0.18.

For the sequence AGCCAGCAAUAUUACGGAGU, the “self-splicing fitness (ln)” value reads like this: (30 °C) -2.69 ± 0.19; (37 °C) -1.66 ± 0.14. The matching figures for GCAUAGCAAUAUUACGUCUG: -1.87 ± 0.068 and -0.701 ± 0.072.

As for GGUCAGCAAUAUUACGAUCA, the “self-splicing fitness (ln)” value runs as follows: (30 °C) -0.0175 ± 0.14; (37 °C) 0.178 ± 0.13. The like results for GACAAGCAAUAUUACGUGGU were, in that order, -3.63 ± 0.11 and -2.76 ± 0.12. Regarding AUGAAGCAAUAUUACGGUCU, the “self-splicing fitness (ln)” value reads like this: (30 °C) -0.0448 ± 0.069; (37 °C) 0.658 ± 0.087. The like results for CGGGAGCAAUAUUACGCGGC were, in that order, -2.4 ± 0.43 and -1.77 ± 0.3. The like results for CCCGAGCAAUAUUACGCAUA were, in that order, -3.7 ± 0.43 and -2.06 ± 0.21. The like results for UACCAGCAAUAUUACGCACG were, in that order, 0.061 ± 0.066 and -0.903 ± 0.066. As for GCUGAGCAAUAUUACGCCCG, the “self-splicing fitness (ln)” value (30 °C) was -2.34 ± 0.27 and the “self-splicing fitness (ln)” value (37 °C) was -0.207 ± 0.42. On to AUAUAGCAAUAUUACGUGUG, for which the “self-splicing fitness (ln)” value is -3.82 ± 0.27 (30 °C) and -2.46 ± 0.18 (37 °C). Take AGACAGCAAUAUUACGUGGU: the “self-splicing fitness (ln)” value was -3.66 ± 0.14 (30 °C) and -2.13 ± 0.12 (37 °C). The matching figures for CCACAGCAAUAUUACGAUCG: -0.326 ± 0.06 and 0.703 ± 0.077. In the case of UUGGAGCAAUAUUACGUGCA, where the note is “37 °C”, the “self-splicing fitness (ln)” value was -1.94 ± 0.31.

With GGCCAGCAAUAUUACGCGCA, the “self-splicing fitness (ln)” value was -0.425 ± 0.1 (30 °C) and 0.666 ± 0.13 (37 °C).
